What is called pIC50 is −log10 of the IC50, conventionally taken in molar units. Higher therefore signals a small IC50. Usually pEC50 stands for the EC50 on a negative log10 scale, so that one unit is a factor of ten. A higher pEC50 goes with a low EC50.

Assay [1] deals with FGF2-C-His (C-terminal 6xHis tagged 18 kDa human FGF2) (human) (UniProt P09038). The assay is described as follows: AlphaScreen or HTRF; C-N orientation, competition: 50 nM FGF2-N-GST and 50 nM FGF2-C-His with increasing competitor, added 30 min before the beads; signal as percent of control without competitor.
For assay [2] the target is unchanged. The assay is described as follows: AlphaScreen or HTRF; N-N orientation: FGF2-C-His bound to both Ni chelate donor and acceptor beads, increasing FGF2-C-His (0-75.5 µM). (In general: In Alpha technology, singlet oxygen from a donor bead excites a nearby acceptor bead.)
For assay [3] the target is unchanged. The assay is described as follows: AlphaScreen or HTRF; N-N orientation, competition: 1 µM FGF2-C-His on Ni chelate donor and acceptor beads with increasing competitor.

pEC50, pIC50: −log10 of the molar value.

“Tag-less FGF2 (from UniProt P09038 143-288) (natural protein)” showed a pIC50 in assay [1] of 6.74.

The substance “FGF2-C-His (C-terminal 6xHis tagged 18 kDa human FGF2) (from UniProt P09038-2 1-155) (natural protein)” had a pEC50 in assay [2] of 5.20.

In the case of “FGF2-N-GST (N-terminal GST tagged 18 kDa human FGF2) (from UniProt P09038-2 1-155) (natural protein)”, the pIC50 in assay [3] is 6.21.

Regarding “platelet factor 4 (PF4) (natural protein)”, the results for the pIC50 in assay [1] and in assay [3] were 6.58 and 5.02, respectively.

These data come from article PMC4192534.
